First the molecules themselves.
B1: SriC12-SriF05: cytochrome P450 SriC12 (SEQ ID NO: 29) co-expressed with ferredoxin SriF05 (SEQ ID NO: 30), native coding sequence (protein, listed as Streptomyces rimosus)
chain 1: MTEALPFPQDRTCPYDPPAGYQPLRDSRPLSRVTLYDGRPAWVVTGHAESRALLTDPRLSADRQNPAFPSPAPRFETLRKVRTPLLGVDDPEHNTQRRMLIPSFSVKRAAALRPRIQEIVDRLLDAMEQQGPPAELVSAFALPVPSMVICALLGVPYADHELFEGLSRTLLQSADPQEVTEARDKLEDYFTALVERKRKEPGDGLLDELIAERLDSGELGHRELVRMAMLLLVAGHETTSNMLSLGTFTLLEHPEQFAALRADPSLLPAAVEELLRFLSIADGMVRVATEDIEIGGVTIRADDGVIFSTSVVNRDGAAYASPDTLDWERSARHHVAFGFGVHQCLGQNLARAEMEIAFGALFARFPGLRLAVPAAEIPVKPAHALQGLVELPVTW
chain 2: MKIDIDTSVCIGSGQCVLTAPGVFTQDDDGFSTLLPGREDGTGDPLVREAARACPVQAIAVTDD
B2: SriC22: cytochrome P450 from Streptomyces rimosus NRRL-2234, SEQ ID NO: 51 (protein, listed as Streptomyces rimosus)
chain: MTTSPTESTTATPPDSTTASAPGTPPDALPSYVGLHPGEPNVMEPELLNDPYAGYGKLREQGALVRGRFLDDSPVWLVTRFDVVREVMRDPRFINNPSRLPGRTEKDPRAQLIELFGIPDHMARYLVDTILTSDPPDHTRLRRLVSRAFTARRIQDLRPRVEAITDELLDRLPAHAQDGVVDLVEHFAYPLPITVICELVGIDEEDRPLWRQFGADLTSLEPKRIGATVPAMVEHIHKVIGERQSALRDDLLSALIRARDDDGGRLSETEMVTMVLTLVLAGHETTAHLISNGTLALLTHPDQRRLLTEDPGLLPRAVHELMRWCGPIQATQLRYASEDVEVAGTQVHKGDALMFSLVAANHDPRHYTEPEKLDLTRQPAGRAEDHVGFGHGMHYCLGASLARQEGEVAFGKLLARYPEVALALPHEQLEEQERIRQPGSWRLRRLPLRLRPED
B3: SriC51-SriF08: cytochrome P450 SriC51 (SEQ ID NO: 109) with ferredoxin SriF08 (SEQ ID NO: 110) (protein, listed as Streptomyces rimosus)
chain 1: MTTADTMPLAYPFNDADGLALSETYEQVRDRPGLLRVQMAYGEPAWLATRYADARLVLGDRRFSRAEGLERDEPRQSEGQRDSGILSMDPPDHTRLRTLVAKAFTVHQVEKLRPWVRELTHGLIDELEAAGPPVDLVDRYALPIPVAVICRMLGVPEEDRPKFRTWSDAALSTSSLTAEEFEANREELRAYMAKLIEDHRTTPRDDLMTRLIEARDVGDRLSELELIDLCVGILVAGHETTATQIPNFVLSLLDHPGELERLRAEPALIKSAVEELLRFVPLGSGAGFPRYATEDIEVGGTLVRAGEPVLVAVGAANRDALRFDEPGTLNITRDGNQHLGFGHGVHHCLGAPLARLELQEALIALITRFPKLHVAGDVVWKDQMLVRGPRVMPVGW
chain 2: MTWKAAIDGQQCMASGMCAGIAPDLFVLDGPHARPLQEEIPEDEAALDAADSCPAMAILIRDGEKVVGPRP
B4: SriC20: cytochrome P450 from Streptomyces rimosus NRRL-2234, SEQ ID NO: 47 (protein, listed as Streptomyces rimosus)
chain: MPEIIDLGAYGPDFVADPHPYYAKLRAQGPVHRVRAPEMEPEFPQAWLIVGYDEARAVLADNRFAKDWSRANGSLADSEVLAEWQLMNMLDADPPQHTRLRKLVAREFTTRRVEALRPRVQQITDELLDAMLAAPDGRADLVEALAFPLPMTVICELLGVPDIERDTFRAWSNELVSPTDNEATMTAAREMAAYLDGLIESKRSSPGEDLLSALVRTSDEDGDQLSRQELLGMAFLLLVAGHETTVNLISNGVRALLQHPAQLAALRADPSLLDNAVEEMLRYDGPVETATWRFTAEPVGIGGVEIPAGEIVLVGLAGADRDPERFEAPDTFDITRETRGHVAFGHGIHFCLGAPLARVEGRIAVRTLLDRCPDLALDTAPEALTWRAGMTIRGPQHLPVRWR
B5: SriC14-SriF06: cytochrome P450 SriC14 (SEQ ID NO: 34) with ferredoxin SriF06 (SEQ ID NO: 35) (protein, listed as Streptomyces rimosus)
chain 1: MTETSTAFPAQDAPAFPSDRTCPYGLPETYARLRDSEDALRPVTLFDGRTAWVVTKHETARTLLADPRLSSNRTHPDFPLTSPRLAGLRDRRPAFISMDPPEHGPRRRMTISEFTVKRIKGMRPDIERIVHGFLDEMLAAGPPADLVSRFALPVPSMVICQLLGVPYADHDFFQDASRRLVQSTSAEEATGARDDLERYLDGLITTLESEPGPGLLGALVTRQLADGAIDRDELISNALLLLVAGHETTASMTSLSVITLLEHPEQHAALRDDPSLIPGAVEELLRYLAIADVAGARVATADIEVDGQVIRAGEGVIVVHSIANRDAGVFENPDTFDIHRSARHHLSFGYGVHQCLGQNLARLELEIILSALFERIPTLRLATPVERLTLRPGSTIQGVNELPVTW
chain 2: MHVTADRDVCVGAGMCALTAPGVFDQDDDGLVTVLTSDIGENDRDAVREAGMLCPSGALRVTE
B6: SriC01: cytochrome P450 from Streptomyces rimosus NRRL-2234, amino acid sequence SEQ ID NO: 2 (protein, listed as Streptomyces rimosus)
chain: MTETIPFEAVDGAVRPSEEVPVVDLSATGLSDTPLQQAMGLAREHGAVYRRRLHGHEALLVSSLELVTELADENRFAKGVSVALENVREFAGDGLFTAYNDEPNWAKAHDILMPAFALGSMRTYHPAMLKVARRVIGSWDRRAADGTPVDVPDDMTRMTLDTIGLAGFGFDFESFSRATMHPFVEAMVRCLEWSMKRLGREPDGDYTEEDAAFRADADYLASVVDEVIASRTGADGTPGEEAGDDLLGLMLGATHPADGTTLDLANIRNQVITFLIAGHETTSGALSFALYHLLKDPAALRLAQREADELWGDQTDPDPSFEDIGRLPYTRQVLNEALRLWPTAAAFSRQARTDTLLGGRIPLKAGQLVTVLTPMLHRDPAWGDNPELFDPTRFAPEAEAARSPHAYKPFGTGERACIGRQFALHEATMLLAMLVHRYRLIDHSDYRLSIKETLTLKPDGFTLTLARRTPADRAGLRAALAVLPGGAAEPDGTESGTDDGLPTRVRQDTALLLLHGTNYGTCRDFAERIADEATGLGFTTEVAPLDAATGALPTDRPVVIVTASYNGQPTDDAARFVEWLSGDEARAEGVPYAVLGVGDRNWAATYQRVPTLLDERLAALGAERLLPRGEADASGDLNGAVKAFTATLRTELLVRYGDPATIGASTPADATDASYTVREVTGGPLDALAARHGLQPMTVTEAYDLTAPGYPRVKRFLRLTLPEGVTYRTADHLAVLPANGAAAVERAAQVLGVSLEAVLDIRAGAGRGGRDTLPVDRPLTVRQLLTHHLELNARPTAAQRAVLADHNPCPPERAALQAIPDDDPRTTLDLIEEHPALRGVLPWPVLLDLLPALRIRHYSLSSSPAADPRHADLMVSLLPGGTGSGHLHTLRPGDTVLARVQPCREAFRLDPADPTPVILVAAGTGLAPFRGAVADRLAATQLAPALLYFGCDALEADYLHAEELQAAEAAGAVSLRPAFSARPVDGCRYVQHRIAAEAEEVGALLDAGARVYVCGDGNRMAPGVRAAFRELYAARTGATQEEAEVWLRELTAAGRYVEDVYVTG

The first data set in a line: Concentration of cytochrome P450 in cell-free extract by carbon monoxide difference spectrum (Omura and Sato). Conditions: effect of codon optimisation, expressed in E. coli BL21 (DE3), value ± SD. As for the experimental part:
Measurement is performed according to the method of Omura and Sato et al. (J Biol Chem, 239. 1964, 2370). That is to say, cytochrome P450 is analyzed quantitatively using the following formula, based on the difference in the absorbance of the reduced CO versus the reduced difference spectrum at 450 nm and 490 nm.
Measurement of the concentration of cytochrome P450 were performed according to the method of Omura and Sato et al. (J Biol Chem, 239. 1964, 2370). Cytochrome P450 concentrations of cell-free extracts of induced E. coli BL21 (DE3) Rosetta2 & Tuner cells harbouring either pHD05-SriC01, pHD02-SriC12-SriF05, pHD05-SriC14-SriF06, pHD05-SriC20, pHD05-SriC22 or pHD05-SriC51-SriF08 are shown in Table 2. Carbon monoxide difference spectra for P450SriC01, P450SriC12, P450SriC14, P450SriC20, P450SriC22 and P450SriC51 are shown in FIGS. 9, 10, 11, 19, 20 & 21 respectively.
The native and codon optimised P450sriC12 and ferredoxinsriF05 in pHD02-SriC12-SriF05 and pHD02-SriC12CO-SriF05CO respectively were introduced into E. coli BL21 (DE3). The recombinant strains were cultured and proteins were induced as in Example 2. The cell-free extract material was obtained as in Example 3 and carbon monoxide difference spectrums were measure to calculate the concentration of cytochrome P450.
The resulting plasmids containing the new mutants genes were transformed into recombinant E. coli strains for expression as described in Example 1, cultured and induced as described in Example 2, extracted and processed as described in Example 3 and tested for biocatalytic activity as described in Example 5 above. The carbon monoxide difference spectrum result of R63W mutant of codon optimised P450SriC12 is shown in FIG. 14 and the cytochrome P450 concentration of mutant P450SriC12 are shown in Table 5.
Molecule B1 gave a P450 concentration of 3.6 ± 0.3 µM.

Staying with this data set, now noted: native enzymes expressed in E. coli BL21 (DE3) Rosetta2 & Tuner cells, cell-free extract.
In the case of B2, the P450 concentration came out at 18.4 µM.

The molecule B3 had a P450 concentration of 25.0 µM.

For B4, the P450 concentration is 18.8 µM.

Regarding B5, the P450 concentration came out at 15.4 µM.

Regarding B6, the P450 concentration was found to be 33.5 µM.

B1 had a P450 concentration of 3.6 µM.
